The results in this text go back to the supplement of paper PMC10724198.

± gives the standard deviation of the averaged measurements.
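Further: PSI is a weighted mean of sequencing reads over stability bins, variants kept only with over 10 reads, mCherry proximal and sfGFP distal, peptide attached via GGGS linker.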

The subject of this series is Saccharomyces cerevisiae. The series can be described thus: protein stability index of tFT-peptide fusion (C-terminal peptide) (PSI (0-1 scale)); higher = more stable (slower turnover). The conditions noted are these: genetic background: wild type; temperature: 30 C.
NPPELPVTENNP yielded a protein stability index of 0.821 ± 0.17.
For NPPSRLPRLPLH, the protein stability index worked out at 0.728 ± 0.043.
Next, NPWYCVWYGAIT: 0.626 ± 0.068.
Next, NQEIGLRNQGRV: 0.69 ± 0.033.
Next, NQPSHPRPHAER: 0.666 ± 0.045; NRELTAVTFQRY: 0.709 ± 0.05.
Consider NRKGNKGEKNTK, for which the protein stability index worked out at 0.676 ± 0.048.
Then NRPKVNSQERGY, with 0.666 ± 0.02.
Then NRQNYAEDLKSC, with 0.683 ± 0.02.
Next, NRSIFITMDSSL: 0.676 ± 0.011; NRSMFSSQNDNA: 0.671 ± 0.066; NRYKIKKKIERR: 0.6 ± 0.039.
In turn, NSGSNKSNNRKC registered a protein stability index of 0.726 ± 0.032.
Next, NSPRKKPHKSIT: 0.711 ± 0.014.
Then NSSPCPLPLLPP, with 0.662 ± 0.036; and NSVHVRGRFITK, with 0.678 ± 0.023.
Next, NSVPSPSRSLPP: 0.666 ± 0.081; NTCKMRTRNIKA: 0.635 ± 0.0068.
NTEKNKRDRYQK returned a protein stability index of 0.722 ± 0.019.
NTNPVHLKTHQT registered a protein stability index of 0.713 ± 0.011.
Next, NTQLPASPVSQG: 0.628 ± 0.027; NTSRSKKKVNSK: 0.704 ± 0.035; NTSVSGTGVSSK: 0.762 ± 0.12.
NTTIQLWVERRQ came in with a protein stability index of 0.679 ± 0.063.
Next, NTVLPTPTMSPP: 0.702 ± 0.04.
Next, NVIVRVPFVLEE: 0.692 ± 0.059; NVMVRIGKGGVD: 0.6664 ± 0.0041.
Next, NVSFHRSHLLYF: 0.654 ± 0.0067; NYCKGFLLRANI: 0.645 ± 0.071.
As to NYKFENQIAKPP, the protein stability index came to 0.655 ± 0.077.
In the case of PAACLSLPPPPS, the protein stability index is 0.706 ± 0.031.
Then PAFGLSPPSFST, with 0.728 ± 0.089.
Then PAFPSPFPTSSL, with 0.647 ± 0.099; and PAISPPSPPPLP, with 0.685 ± 0.047; and PALPPAPPPPPP, with 0.693 ± 0.044.
Next, PANASAEGDTSP: 0.682 ± 0.0082.
In turn, PANLLHPSDPPP had a protein stability index of 0.612 ± 0.0064.
Next, PAPLLPPSWRHP: 0.716 ± 0.015; PAPPAPPPPPYL: 0.735 ± 0.087; PAPPHPRHPPPP: 0.649 ± 0.018.
Then PAPPHTLPVWAD, with 0.728 ± 0.029.
Next, PAPPLPPLPLLP: 0.684 ± 0.013.
As to PAPPPHIPPSPS, the protein stability index was 0.651 ± 0.023.
Next, PAPRARTPLDRI: 0.683 ± 0.039; PAPRFPFLFHPL: 0.776 ± 0.035.
Then PAQDCAATGVRR, with 0.672 ± 0.037.
Next, PARASLRCLCRN: 0.662 ± 0.055; PARLQSTLHPRF: 0.634 ± 0.012; PARPNMHTTPAD: 0.646 ± 0.02.
Turning to PARPQSFPPPNV, the protein stability index amounted to 0.669 ± 0.035.
As for PARPSPRPHLPD, the protein stability index worked out at 0.692 ± 0.04.
Next, PARPSSLQLFPY: 0.747 ± 0.0078; PARQDRPPDHAS: 0.729 ± 0.031.
Next, PARRPPLPRLFL: 0.665 ± 0.032.
Turning to PASLPTPLPLPP, the protein stability index stood at 0.618 ± 0.016.
PATPSPLSSSAP had a protein stability index of 0.711 ± 0.039.
Then PAVAPRSTYAWH, with 0.69619 ± 0.00054; and PCGGVGRECVRG, with 0.762 ± 0.032.
Next, PCPGSPPCHFYF: 0.691 ± 0.018.
Consider PCPRPTPLPPFP, for which the protein stability index was 0.701 ± 0.055.
Next, PCPVLPLPPFYL: 0.728 ± 0.0074; PCRRPSSAPFPV: 0.696 ± 0.027; PCSGSFFLEFRV: 0.707 ± 0.021.
Next, PCSVDKAGSTKK: 0.606 ± 0.014; PDCSFLNSTFTS: 0.739 ± 0.088; PDGREQLVNGVT: 0.6359 ± 0.0019.
Next, PDGTGPLCAPEP: 0.646 ± 0.059; PDPPPRCRFLPL: 0.698 ± 0.044; PDQPQPRPATNQ: 0.681 ± 0.022.
For the sequence PDRIQPRSVLLP, the protein stability index came out at 0.7293 ± 0.0047.
Then PDVPLASPSPFR, with 0.625 ± 0.023; and PEFNKLNRFVSQ, with 0.74 ± 0.11; and PEGPHTRTVVPA, with 0.66 ± 0.0088.
In the case of PEITWFVIGVIE, the protein stability index was 0.541 ± 0.043.
Next, PEPSRRASAVSN: 0.648 ± 0.059; PERFHLVCWVGR: 0.712 ± 0.083; PFALPPPSPFPP: 0.7116 ± 0.0063.
Then PFAVKYIFEVWK, with 0.591 ± 0.028; and PFCVPPPRPFSL, with 0.743 ± 0.036.
Then PFESSRRLAPSP, with 0.722 ± 0.035.
PFGDRSGLCVSV returned a protein stability index of 0.653 ± 0.017.
Then PFIPLSMLSPLV, with 0.68 ± 0.036; and PFLEPPYPLLRS, with 0.704 ± 0.17; and PFLHPSSPPSPT, with 0.698 ± 0.036.
Next, PFLLSPCSLSAS: 0.665 ± 0.026; PFPALQHAISRE: 0.699 ± 0.066; PFPLGPSLQTVI: 0.681 ± 0.028.
In turn, PFPPLPPPPSPC showed a protein stability index of 0.71 ± 0.014.
PFPPPPPPPRSP came in with a protein stability index of 0.728 ± 0.047.
Sequence PFPPPPTPTLSP registered a protein stability index of 0.755 ± 0.027.
With PFPPPRPPPAPP, the protein stability index came out at 0.613 ± 0.023.
For PFPPRRLLSAPP, the protein stability index came to 0.671 ± 0.039.
Next, PFPRPVSPSPPP: 0.743 ± 0.037; PFPSFLPLLLPS: 0.702 ± 0.069.
PFPSLLPALSSL: the protein stability index amounted to 0.678 ± 0.044.
Next, PFPSPAAPPPSL: 0.674 ± 0.01; PFPSPPSPPSPL: 0.817 ± 0.11.
Then PFPSTIQSYSYS, with 0.738 ± 0.07; and PFRSFVFSLDPF, with 0.725 ± 0.049.
In turn, PFSASSILESVI registered a protein stability index of 0.719 ± 0.098.
With PFTTSSQPDSPI, the protein stability index amounted to 0.735 ± 0.065.
For the sequence PFVAFLPPLSPP, the protein stability index was 0.702 ± 0.037.
Next, PFVSGFGRPGYC: 0.751 ± 0.039; PGDPRARPRLCP: 0.71 ± 0.033; PGLGVGATRCVH: 0.734 ± 0.018.
Then PGLPCRNRMPFR, with 0.687 ± 0.0078; and PGNAEQGIAVHL, with 0.626 ± 0.055.
Next, PGNYVLSDPPLM: 0.715 ± 0.033; PGPATKAPLRTL: 0.671 ± 0.018.
PGSILFRGVGAS displayed a protein stability index of 0.691 ± 0.035.
Next, PGVAGSLSLLRR: 0.722 ± 0.097.
Then PGVFEITPVMLI, with 0.6949 ± 0.0055.
Then PHAMNPNTSRVL, with 0.682 ± 0.008; and PHEKDKNMGKQK, with 0.702 ± 0.085.
PHLHHPPPPISA: the protein stability index was 0.603 ± 0.027.
In turn, PHPATSPVARPP displayed a protein stability index of 0.678 ± 0.014.
